How the values were obtained:
[1] = target: filamin C (FLNc) Ig-like domains 23–24, wild type (human); assay: cross-linking
[2] = target: filamin C (FLNc) Ig-like domains 23–24, wild type (human); assay: SEC-MALS
[3] = target: filamin C (FLNc) Ig-like domains 23–24, wild type (human); assay: cross-linking; remark: listed apart in the source

Measured: stoichiometry N

filamin C (FLNc) Ig-like domains 23–24, wild type (domain or fragment)
2: all assays above

Source: publication PMC8237399
